Holding throughout (assay): cell-based or functional assay
For test [1], the target named is HIV-1 JR-CSF(Y318A) Env on pseudovirus (HIV-1 isolate JR-CSF) (UniProt P20871).
Test [2] concerns the target HIV-1 ADA Env (gp160), on transfected 293 cells or on ADA pseudovirus (HIV-1 strain ADA).
The target of test [3] is HIV-1 JR-CSF Env (gp160), on transfected 293/293T cells or on JR-CSF pseudovirus (HIV-1 isolate JR-CSF) (UniProt P20871).
Test [4] has as its target HIV-1 JR-CSF(I309A) Env on pseudovirus (HIV-1 isolate JR-CSF) (UniProt P20871).
Test [5] deals with HIV-1 JR-FL(E168K) Env on pseudovirus (HIV-1 strain JR-FL).
In test [6] the target is HIV-1 92RW020 Env on pseudovirus (HIV-1 strain 92RW020).

Positions count from the first letter of the chain named. Bounds are passed on as bounds.

B1: 1503_H05 (PG16) antibody, sister clone of 1443_C16 (antibody, V domains shown)
VH: QEKLVESGGGVVQPGGSLRLSCLASGFTFHKYGMHWVRQAPGKGLEWVALISDDGMRKYHSDSMWGRVTISRDNSKNTLYLQFSSLKVEDTAMFFCAREAGGPIWHDDVKYYDFNDGYYNYHYMDVWGKGTIVTVSS
VL: QSALTQPASVSGSPGQTITISCNGTRSDVGGFDSVSWYQQSPGKAPKVMVFDVSHRPSGISNRFSGSKSGNTASLTISGLHIEDEGDYFCSSLTDRSHRIFGGGTKVTVLG
In the case of B1, the IC50 (ug/ml), pseudovirus neutralisation, TZM-bl assay in test [1] is more than 1 µg/mL; in test [2], 0.003 µg/mL; in test [3], 0.001 µg/mL; in test [4], more than 1 µg/mL; in test [5] it was 0.002 µg/mL; in test [6], 0.02 µg/mL.

B2: 1469_M23 (PG16) antibody, sister clone of 1443_C16 (antibody, V domains shown)
VH: B1 VH with I132T
VL: B1 VL with K44R, V107L
Take B2: the IC50 (ug/ml), pseudovirus neutralisation, TZM-bl assay is more than 1 µg/mL in test [1]; 0.005 µg/mL in test [2]; 0.002 µg/mL in test [3]; more than 1 µg/mL in test [4]; 0.005 µg/mL in test [5]; 0.05 µg/mL in test [6].

B3: 1456_A12 (PG16) antibody, sister clone of 1443_C16 (antibody, V domains shown)
VH: B1 VH with Q1H, K3Q, S7A, K87R, I132K
VL: B1 VL with R26S, S27R, I60M, V107L
On to B3, for which the IC50 (ug/ml), pseudovirus neutralisation, TZM-bl assay in test [1] is more than 1 µg/mL; in test [2] it was 0.005 µg/mL; in test [3], 0.001 µg/mL; in test [4] it was more than 1 µg/mL; in test [5], 0.003 µg/mL; in test [6], 0.05 µg/mL.

B4: 1489_I13 (PG16) antibody, sister clone of 1443_C16 (antibody, V domains shown)
VH: B1 VH with K3Q, V5L, D62N, I132T
VL: B1 VL with R26S
B4: the IC50 (ug/ml), pseudovirus neutralisation, TZM-bl assay is more than 1 µg/mL in test [1]; 0.008 µg/mL in test [2]; 0.002 µg/mL in test [3]; more than 1 µg/mL in test [4]; 0.005 µg/mL in test [5]; 0.03 µg/mL in test [6].
